The values below come from the Immune Epitope Database (IEDB).

As a reminder, the Kd is the equilibrium constant for the complex coming apart. Low readings indicate higher affinity, high ones lower affinity.

Test [1] concerns the target HLA-A*03:01. Description: IEDB peptide-MHC binding, purified MHC/competitive/fluorescence; filed as Kd, often an IC50 or EC50 that approximates it; ≥ and ≤ were set here for values at or beyond the usual limits of such assays.
The target in the next test is HLA-B*44:02. Description: IEDB peptide-MHC binding, purified MHC/direct/fluorescence; filed as Kd, often an IC50 or EC50 that approximates it; ≥ and ≤ were set here for values at or beyond the usual limits of such assays.
For test [2], the target named is HLA-B*57:01. The description is as above.
The target of a further test is HLA-B*48:01. The test is described as above.
The target of another test is HLA-A*29:02. Described as above.
The target in test [3] is HLA-B*18:01. The description is as above.
For test [4], the target named is HLA-A*69:01. Described as above.
For test [5], the target named is HLA-A*02:01. Described as above.
Test [6] addresses HLA-A*03:01. The test is described as above.
The next test has as its target HLA-A*11:01. Described as above.
The next test addresses HLA-B*40:01. Described as above.
Test [7] deals with HLA-B*46:01. The description is as above.
The target in test [8] is HLA-B*15:01. The test is described as above.
For a further test, the target named is HLA-B*58:01. The test is described as above.
For a further test, the target named is HLA-A*31:01. Described as above.
The next test concerns the target HLA-A*01:01. The description is as above.
The target in test [9] is HLA-B*57:01. Description: IEDB peptide-MHC binding, purified MHC/competitive/fluorescence; filed as Kd, often an IC50 or EC50 that approximates it; ≥ and ≤ were set here for values at or beyond the usual limits of such assays.
The next test concerns the target HLA-B*39:01. The test is described as above.
The target in test [10] is HLA-B*18:01. Described as above.
Test [11] addresses HLA-A*69:01. The description is as above. The note with it: source organism: Homo sapiens.
In test [12] the target is HLA-B*46:01. The test is described as above.
Test [13] concerns the target HLA-B*15:01. The test is described as above.
In the next test the target is HLA-A*26:01. The test is described as above.
A further test has as its target HLA-B*27:03. The description is as above.
Another test addresses HLA-B*15:17. The test is described as above.
A further test concerns the target HLA-B*51:01. Described as above. The note with it: source organism: Homo sapiens.
Another test has as its target HLA-B*27:05. Description: IEDB peptide-MHC binding, purified MHC/direct/fluorescence; filed as Kd, often an IC50 or EC50 that approximates it; ≥ and ≤ were set here for values at or beyond the usual limits of such assays.
The target in the next test is HLA-B*08:01. The description is as above.
Test [14] concerns the target HLA-A*02:01. Description: IEDB peptide-MHC binding, purified MHC/competitive/fluorescence; filed as Kd, often an IC50 or EC50 that approximates it; ≥ and ≤ were set here for values at or beyond the usual limits of such assays.
[15] abbreviates: source organism: Yellow fever virus 17D.
Setting [16] is: source organism: Reston ebolavirus.
Where [17] appears, read: source organism: Reston ebolavirus - Reston.
Setting [18] is: source organism: Cryptococcus neoformans var. neoformans B-3501A.
[19] abbreviates: source organism: Salmonella enterica subsp. enterica serovar Typhi.
The mark [20] stands for this setting: source organism: Mycobacterium tuberculosis variant bovis BCG str. Pasteur 1173P2.

The sequence GLFNYFFGK had a Kd with HLA-A*03:01 [1] (source organism: Entamoeba histolytica HM-1:IMSS) of 0.041 µM.

In the case of CRTAFKPVL, the Kd with HLA-B*44:02 (setting [15]), in the test with HLA-B*57:01 [2] (setting [15]), with HLA-B*48:01 (setting [15]), with HLA-A*29:02 (setting [15]), in the test with HLA-B*18:01 [3] (setting [15]) and with HLA-A*69:01 [4] (setting [15]) was at least 20 µM in each case. Further, the dissociation constant (Kd) with HLA-A*02:01 [5] (setting [15]), with HLA-A*03:01 [6] (setting [15]), in the test with HLA-A*11:01 (setting [15]), in the test with HLA-B*40:01 (setting [15]), with HLA-B*46:01 [7] (setting [15]) and with HLA-B*15:01 [8] (setting [15]) was at least 20 µM each time. Also, the Kd in the test with HLA-B*58:01 (setting [15]), with HLA-A*31:01 (setting [15]) and with HLA-A*01:01 (setting [15]) was at least 20 µM in each case.

As to FLQQRKPPL, the Kd with HLA-B*57:01 [9] (source organism: Homo sapiens), with HLA-B*39:01 (source organism: Homo sapiens), with HLA-B*18:01 [10] (source organism: Homo sapiens), with HLA-A*69:01 [11], with HLA-B*46:01 [12] (source organism: Homo sapiens) and with HLA-B*15:01 [13] (source organism: Homo sapiens) was at least 20 µM in each case. Also, the Kd is at least 20 µM with HLA-A*26:01 (source organism: Homo sapiens); at least 20 µM with HLA-B*27:03 (source organism: Homo sapiens); at least 20 µM with HLA-B*15:17 (source organism: Homo sapiens); at least 20 µM with HLA-B*51:01; 0.432 µM with HLA-A*02:01 [5] (source organism: Mus musculus).

Regarding LTDSDSPTY, the Kd turned out to be 0.14 µM with HLA-A*29:02 (source organism: Mycobacterium tuberculosis str. Haarlem) and 0.025 µM with HLA-A*01:01 (source organism: Mycobacterium tuberculosis).

In turn, LLANILSEK showed a Kd with HLA-A*03:01 [1] (source organism: Rickettsia sibirica 246) of 0.0078 µM.

For the sequence MQDVFTFYV, the Kd with HLA-B*57:01 [9] (source organism: Homo sapiens), in the test with HLA-B*18:01 [10] (source organism: Homo sapiens), in the test with HLA-B*46:01 [12] (source organism: Homo sapiens), with HLA-B*15:01 [13] (source organism: Homo sapiens), with HLA-A*26:01 (source organism: Homo sapiens) and with HLA-B*27:03 (source organism: Homo sapiens) was at least 20 µM throughout. The dissociation constant Kd is at least 20 µM in the test with HLA-B*15:17 (source organism: Homo sapiens), at least 20 µM in the test with HLA-B*51:01 and 0.0008 µM in the test with HLA-A*02:01 [5] (source organism: Homo sapiens).

VLGYSRMLY showed a Kd with HLA-A*03:01 [1] (source organism: Escherichia coli 536) of 0.0903 µM.

As for FHRKKTDAL, the Kd with HLA-A*26:01 (setting [16]), with HLA-B*27:03 (setting [16]), in the test with HLA-B*15:17 (setting [16]), with HLA-B*44:02 (setting [17]), in the test with HLA-B*57:01 [2] (setting [17]) and with HLA-A*29:02 (setting [17]) was at least 20 µM in each case. Further, the Kd in the test with HLA-B*27:05 (setting [17]), with HLA-B*18:01 [3] (setting [17]), in the test with HLA-A*69:01 [4] (setting [17]), with HLA-A*02:01 [5] (setting [17]), in the test with HLA-A*03:01 [6] (setting [17]) and with HLA-A*11:01 (setting [17]) was at least 20 µM each time. In addition, the Kd with HLA-B*40:01 (setting [17]) is at least 20 µM; in the test with HLA-B*46:01 [7] (setting [17]) it was at least 20 µM; in the test with HLA-B*15:01 [8] (setting [17]) it was at least 20 µM; with HLA-B*08:01 (setting [17]), 0.451 µM; with HLA-B*58:01 (setting [17]), at least 20 µM; with HLA-A*31:01 (setting [17]) it was at least 20 µM. The sequence further showed a Kd with HLA-A*01:01 (setting [17]) of at least 20 µM.

For the sequence YITDYSNDI, the Kd with HLA-B*57:01 [9] (source organism: Homo sapiens), in the test with HLA-B*39:01 (source organism: Homo sapiens), in the test with HLA-B*18:01 [10] (source organism: Homo sapiens), in the test with HLA-A*69:01 [11], in the test with HLA-B*46:01 [12] (source organism: Homo sapiens) and with HLA-B*15:01 [13] (source organism: Homo sapiens) was at least 20 µM throughout. The dissociation constant (Kd) with HLA-A*26:01 (source organism: Homo sapiens) is at least 20 µM; with HLA-B*27:03 (source organism: Homo sapiens), at least 20 µM; with HLA-B*15:17 (source organism: Homo sapiens), at least 20 µM; with HLA-B*51:01, at least 20 µM; with HLA-A*02:01 [5] (source organism: Homo sapiens), 0.0075 µM.

For AIDDFCLFA, the Kd with HLA-B*57:01 [9] (setting [18]) was at least 20 µM; with HLA-B*39:01 (setting [18]), at least 20 µM; with HLA-B*18:01 [10] (setting [18]), at least 20 µM; with HLA-A*02:01 [14] (setting [18]) it was 0.0135 µM; in the test with HLA-A*03:01 [1] (setting [18]), at least 20 µM; with HLA-B*46:01 [12] (setting [18]), at least 20 µM. For the same sequence, the Kd in the test with HLA-B*15:01 [13] (setting [18]), with HLA-A*26:01 (setting [18]) and with HLA-B*27:03 (setting [18]) was at least 20 µM in each case.

For KQRCALPSL, the Kd in the test with HLA-A*02:01 [14] (setting [19]) is 0.796 µM; with HLA-B*15:01 [13] (setting [19]), 0.246 µM.

For HPTSRRELL, the dissociation constant (Kd) in the test with HLA-B*44:02 (setting [20]), with HLA-B*57:01 [2] (setting [20]), in the test with HLA-B*48:01 (setting [20]), with HLA-A*29:02 (setting [20]), in the test with HLA-B*27:05 (setting [20]) and with HLA-B*18:01 [3] (setting [20]) was at least 20 µM each time. Besides, the Kd was at least 20 µM with HLA-A*03:01 [6] (setting [20]); at least 20 µM with HLA-A*11:01 (setting [20]); at least 20 µM with HLA-B*40:01 (setting [20]); at least 20 µM with HLA-B*46:01 [7] (setting [20]); at least 20 µM with HLA-B*15:01 [8] (setting [20]); 8.77 µM with HLA-B*08:01 (setting [20]). Also, the dissociation constant (Kd) with HLA-B*58:01 (setting [20]), with HLA-A*31:01 (setting [20]) and in the test with HLA-A*01:01 (setting [20]) was at least 20 µM throughout.
